These results are taken from paper PMC10692146 (2023).

Where no end group is shown, it is not given here.

The target of assay [1] is T1, reduced p38α (MAPK14), recombinant mouse protein kept with reducing agent (DTT or TCEP) (mouse, UniProt P47811 1-360). Briefly: ITC.
In assay [2] the target is T1, reduced p38α (MAPK14), recombinant …. Briefly: ITC; oxidized p38α re-reduced by dialysis with TCEP. Background: ITC needs no label: the signal is the heat of the interaction.

T1 sequence (P47811 whole entry): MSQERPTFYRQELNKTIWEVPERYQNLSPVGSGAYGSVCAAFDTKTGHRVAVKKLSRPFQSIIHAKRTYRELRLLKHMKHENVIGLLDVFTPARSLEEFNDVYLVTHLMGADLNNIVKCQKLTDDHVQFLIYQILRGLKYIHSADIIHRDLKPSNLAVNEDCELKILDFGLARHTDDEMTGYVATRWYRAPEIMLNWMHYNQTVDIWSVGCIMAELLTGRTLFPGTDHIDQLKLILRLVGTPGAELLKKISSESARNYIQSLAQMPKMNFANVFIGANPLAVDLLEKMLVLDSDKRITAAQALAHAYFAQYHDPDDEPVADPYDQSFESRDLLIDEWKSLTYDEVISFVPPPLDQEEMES

B1: FITC-TAB1 peptide (amino acids 384-412 of TAB1) (peptide)
peptide: RVYPVSVPYSSAQSTSKTSVTLSLVMPSQ
modifications: also: FITC label, end not given here
As usually defined, the Kd is the equilibrium constant for the complex coming apart. For B1, the Kd worked out at 1.2 µM in assay [1] and 2.66 µM in assay [2].
